According to paper PMC12279963 (Nature Communications, 2025):
Changes are numbered by the printed parent chain. Numbers in names are those of the source. Each block holds one binder with its values, some of them ahead of it.

Assays:
[1] = target: T1, EcPBP1b^C794A (pSI233), truncation 58-804, Cy3-labelled at C776 (E. coli, UniProt P02919 58-804, C794A, Cy3 (sulfo-Cy3-maleimide) on C776); test: FRET or BRET
T1 sequence (looked up): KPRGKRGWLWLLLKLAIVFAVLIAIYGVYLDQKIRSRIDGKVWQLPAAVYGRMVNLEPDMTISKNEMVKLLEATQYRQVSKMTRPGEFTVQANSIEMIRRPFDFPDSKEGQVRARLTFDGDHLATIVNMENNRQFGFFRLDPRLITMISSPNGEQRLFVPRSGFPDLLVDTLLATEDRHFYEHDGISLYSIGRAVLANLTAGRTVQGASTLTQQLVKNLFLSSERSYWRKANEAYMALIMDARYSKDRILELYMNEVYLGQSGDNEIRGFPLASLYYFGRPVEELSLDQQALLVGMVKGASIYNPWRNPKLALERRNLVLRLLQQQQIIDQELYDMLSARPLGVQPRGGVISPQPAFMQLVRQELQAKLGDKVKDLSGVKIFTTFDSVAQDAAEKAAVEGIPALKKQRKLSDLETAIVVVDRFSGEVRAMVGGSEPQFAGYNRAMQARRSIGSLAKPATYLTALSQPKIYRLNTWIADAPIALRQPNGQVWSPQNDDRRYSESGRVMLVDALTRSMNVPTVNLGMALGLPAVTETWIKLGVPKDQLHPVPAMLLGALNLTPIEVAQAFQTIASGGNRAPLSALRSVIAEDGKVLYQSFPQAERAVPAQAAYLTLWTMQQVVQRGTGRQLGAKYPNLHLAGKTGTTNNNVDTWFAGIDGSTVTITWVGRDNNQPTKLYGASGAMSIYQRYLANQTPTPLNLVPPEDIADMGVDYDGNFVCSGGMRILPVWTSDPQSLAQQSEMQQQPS

[2] = target: T2, EcPBP1b^82-804 (pSI199), TM domain substituted with an N-terminal cysteine acylation site, ALFA-tagged (E. coli) (UniProt P02919); test: BLI
T2 sequence (P02919 82-804, looked up): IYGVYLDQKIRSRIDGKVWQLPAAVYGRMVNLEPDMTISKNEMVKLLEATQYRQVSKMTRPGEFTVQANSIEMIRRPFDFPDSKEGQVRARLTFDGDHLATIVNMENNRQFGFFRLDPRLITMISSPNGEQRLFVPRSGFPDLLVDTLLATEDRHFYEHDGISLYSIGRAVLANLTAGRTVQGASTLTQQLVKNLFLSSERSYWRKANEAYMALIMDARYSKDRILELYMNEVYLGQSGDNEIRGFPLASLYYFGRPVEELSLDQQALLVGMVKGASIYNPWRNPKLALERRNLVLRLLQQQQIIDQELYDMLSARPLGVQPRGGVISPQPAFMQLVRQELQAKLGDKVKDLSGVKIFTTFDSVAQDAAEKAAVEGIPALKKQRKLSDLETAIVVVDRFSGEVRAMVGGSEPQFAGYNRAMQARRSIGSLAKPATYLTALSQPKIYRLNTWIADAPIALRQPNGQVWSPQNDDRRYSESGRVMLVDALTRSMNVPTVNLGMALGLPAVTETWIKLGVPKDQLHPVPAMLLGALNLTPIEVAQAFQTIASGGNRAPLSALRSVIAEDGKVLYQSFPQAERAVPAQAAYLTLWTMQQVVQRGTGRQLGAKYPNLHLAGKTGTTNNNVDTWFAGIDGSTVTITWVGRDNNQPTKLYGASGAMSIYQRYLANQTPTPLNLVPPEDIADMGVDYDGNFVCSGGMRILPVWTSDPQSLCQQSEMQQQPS

Kd [1]: 900 nM
B1: EcLpoB^S211C (pSI204), truncation 21-213, Cy5-labelled (natural protein, E. coli, UniProt P0AB38 21-213, looked up)
chain: VGQREPAPVEEVKPAPEQPAEPQQPVPTVPSVPTIPQQPGPIEHEDQTAPPAPHIRHYDWNGAMQPMVSKMLGADGVTAGSVLLVDSVNNRTNGSLNAAEATETLRNALANNGKFTLVSAQQLSMAKQQLGLSPQDSLGTRSKAIGIARNVGAHYVLYSSASGNVNAPTLQMQLMLVQTGEIIWSGKGAVCQQ
modifications: Cy5 (sulfo-Cy5-maleimide) on C211

Kd [2]: 915 nM
B2: LpoB^64-213 (pSI259), wild type (domain or fragment)
chain: HEDQTAPPAPHIRHYDWNGAMQPMVSKMLGADGVTAGSVLLVDSVNNRTNGSLNAAEATETLRNALANNGKFTLVSAQQLSMAKQQLGLSPQDSLGTRSKAIGIARNVGAHYVLYSSASGNVNAPTLQMQLMLVQTGEIIWSGKGAVSQQ

Kd [2]: 9 nM
B3: LpoB^64-213 A164S S180I S157V (combined) (domain or fragment)
chain: B2 chain with S94V, A101S, S117I

Kd [2]: 24 nM
B4: LpoB^64-213 S157V Y178W (domain or fragment)
chain: B2 chain with S94V, Y115W
